The DeepSol protein solubility set

Assay: soluble on expression in E. coli; label from the status in PepcDB or PDB records

**Q.** For “MAGDPMNSRMKIKKAYEYMKSFHQHDTTGHDIAHVERVYNNACYIAKRENITDTLVIELSSLLHDTVDSKLTDEILAYDQLKQFLSTLDLSSEISQQVLYIIKHMSYRAGKNNHVKLSIDGEIVRDADRLDAIGAIGIARTFQFSGHFGEPMWTETKLSNEELHTSLVEELDNSAIKHFYEKLFKLKDLMHTPTAKKLAEERHQFMIQYLKQFMSEWNFNKELEHHHHHH”, which “soluble on expression in E. coli” value is on record?
**A.** soluble

**Q.** For “KEMKYVVDTSVVISGRVTEMLESGEIKGTIIVPEAVMAELEAQANFGKMTGFQGLSEIEKLTKLAKDKGFEVIFAGERPKLEHIRLAKGGEIDNLIREVAAEFDAVLVTSDRVQHLVARAKGIETIYVRPRVVRPENTRIMSFFTP”, which “soluble on expression in E. coli” value is on record?
**A.** not soluble

**Q.** Which “soluble on expression in E. coli” value does the source give for “PYARFQSAMFDKDTLIVSYDAERGEPRGARKKTVNKEEAGLGDCINCAMCVQVCPVGIDIRNGLQYQCIGCAACIDACDEIMDKMGYPRGL” here?
**A.** not soluble

**Q.** Which “soluble on expression in E. coli” value does the source give for “MSLENLQTNFSLVQGSTKKLNGMGDDGSPPAKKMITDIHVNGKTINKVPTVKKEHLDDYGEAPVETDGEHVKRTCTSVPETLHLNPSLKHTLAQFHLSSQSSLGGPAAFSARHSQESMSPTVFLPLPSPQVLPGPLLIPSDSSTELTQTVLEGESISCFQVGGEKRLCLPQVLNSVLREFTLQQINTVCDELYIYCSRCTSDQLHILKVLGILPFNAPSCGLITLTDAQRLCNALLRPREGHHHHHH” here?
**A.** soluble

**Q.** Which “soluble on expression in E. coli” value does the source give for “MGSDKIHHHHHHLITIENSKFKAGIAERGAELQSLVNKADNYEYVWTGDKTFWNRHAPILFPSIGKSNQDQYRLGAKTYPMSQHGFARDYDFDVSDKSDSAVTFTQHQNAETLKKFPFEYTLAVTYMLTDGGLSVHYTVTNDDSKSMPFALGFHPAFNVGLKADGSFDDYDLTVEPLNSPLQRFGIGPVPFRNGDVEDIPGAEGNRLPLTHDLLDGGLVILANSEIAKATLASPHHDHSITLDISDFPYLTIWSPEHKKAPFIAVEPFDGLPDQAGEPTDWYTKLGNTTLSAGANKQLALKVELH” here?
**A.** not soluble

**Q.** For “MKRESVLFQAARKHHLNLLFPLFRANTSASYPVSRFISRPITVLSKGFAKGFFCIKKETVDKIQQFFFDKWAIEERRYHQLLSILLPGLKNGNLASVEQYLGAKRIEAYAAVPYVAGRWELDDASLPQGAVVVLTCEGVLYSWETYRLERYISAAMANDRISGVVLFVNGPGGMITRVDVLEKLIRQSPKPIVAYITGVCASAHFWFVSACARRFVSSPMDEIGSCGVVYTFQSFKEYYAQMGIEIEDIYPDSADLKNRAYRDKEEKQDDTLIKENLSFYHHLFAQTIARNLGVKYDAQDPLFRGQTFFADTALAKGYVDAYGSLEDAILWVSAQKTVKRANKMILEHHHHHH”, which “soluble on expression in E. coli” value is on record?
**A.** not soluble

**Q.** With “MKLALTLEADSVNVQALNMGRIVVDVDGVNLSELINKVSENGYSLRVVDKSDQHATSTPPPLTTLTCIRCSTAHITETDNAWLYSLSHQTNDDGETEWIHFTGSGYLLRTDAWSYPVLRLKRLGLSRTFRRLVVTLTRRYGVSLIHLDAGAECLPGFPTFDW” as the sequence, how does the “soluble on expression in E. coli” value read?
**A.** not soluble

**Q.** With “MAHHHHHHMLRRLVSCASPLRLRGCGAAVVLGNGRFASTANASAAPPITTTKAPTYGTVPDIPNLNFLSSPDNLLNTVDGTVDVCEALLKEIPKAKTPQAKHDLIDSTSNVLCLLLDPCEFVRQIHPDENYKRGASLAFQKGYEYMCEVNSRRDLYDVIKELDSQEGRKGLTPESSRTLCS” as the sequence, how does the “soluble on expression in E. coli” value read?
**A.** not soluble

**Q.** With “MISANKQFDIQLGDEIGKDFFTQDTVVCAFRNKEKTTDFVFTSGPIILICDGTTRRKMIKRRFKMEFDIKKVFFHSFIVTRNAEKLATENCGGPDTKHRDYLVVCGEHKLQFISLPDYHFYHYEIPFKLRNVFSCSTSLLVERFYDSSSEQTFHHHDTFHLYSLSGPFGELLPVIYKTSGYHPQWKFCWQSHRDEAGLVDAQQNYVVVYDQKEKTHRIYMARETQEQEVHAAIRYVEALRRPSDSTMFASSLAPNSAGRTTHFDPTLNSPAENVLSEVISSEIDSRSPFTPHLRSGFGHSTPNNPNAPGYPATLPTPNFEGNFFF” as the sequence, how does the “soluble on expression in E. coli” value read?
**A.** not soluble

**Q.** Which “soluble on expression in E. coli” value does the source give for “MPRKRSVALAAWGEEGLLLVLRPQDDPEFPGAWGLPAVSLQGEETLEEAALRVAREKLGAEVAEAGPIAFGVEERPGYTLELWVYEGRLLGRPRLPEPKPGKTYYAAFRFGRPEELKAAARQGSLCSRLFLAVKGLCP” here?
**A.** soluble

**Q.** For “MSLKWTIYQLHQMPKQSFEFDETVELNELTKLNSDIRRISPVRVKGRADIKSKQVSFDFTISGEMLLPCSRTLVDVPYPFEISTKELFIFHHTDDIEDDDVHIVEDDTIDITPIVKEEILLEIPMQIFCESEQEKGAAPQEGKDWQVISEEDKKNQVDPRLAALEKLLKQDDESEGHHHHHH”, which “soluble on expression in E. coli” value is on record?
**A.** soluble

**Q.** Which “soluble on expression in E. coli” value does the source give for “MADPSFASGRLGSRLQGSIAMIAEELLRAGRLDDALKALQEQVRSQPSNATLRIFLFQLLAVMGQWARAQNQLKVVGELDASALPMVQTYSTAIDCEALRREVFAGRLTPVILGQPAEWIAPLLQALSLDAEGHGEAAQALREQAFDAAPAVPGRIGEAPFAWLADADTRLGPVLEVIVNGRYAWLPMSNLRSLKVEAPSDLRDLVWLPAELTLANGGATVALLPARYAETVEHGDDAARLGRKTEWLDSGLPVGQRLFVTDAGETALFDLRELDFEPTDA” here?
**A.** not soluble

**Q.** For “MSLDVAALVSGGVDSSVVVHRLCEEGYKPAIFYIRIGMEDKDGYIDCPAEEDIELTTLIARRYGCPFEVVDLHKEYWERVVSYTVETVRRGLTPNPDMMCNKLIKFGCFEERWGYQFDRIATGHYATTDLLNGKTYLSTAKDPVKDQTDFLAQINFAQISKLMFPIGHLLKSEVRAIANAAGLPSAKRKDSQGICFLGKIDYNDFIERYLGKKEGRIIELETGKVIGRHQGYWFHTIGQRKGLGLSGGPWFVVKKDIKRNIILVSRGYDPDAQYGKTIEMETFDFITEDAYEAGYWNREDATPVTFKIRHTPEFTRGLLYKGEKGYRLESEERIQGIAPGQYCVIYDEDHHLCYGSGMITKGREGHHHHHH”, which “soluble on expression in E. coli” value is on record?
**A.** soluble

**Q.** For “MEKIKYGFGEIEAAASDIQSTSGRINSLLEDLKAHIRPMAAAWEGESAQAYNEAQQQWDSSAAELNTILSTISNTVRQGNDRMSEVNRMAAASWS”, which “soluble on expression in E. coli” value is on record?
**A.** not soluble

**Q.** For “MSLDLRARVREELERLKREGLYISPKVLEAPQEPVTRVEGREVVNLASNNYLGFANHPYLKEKARQYLEKWGAGSGAVRTIAGTFTYHVELEEALARFKGTESALVLQSGFTANQGVLGALLKEGDVVFSDELNHASIIDGLRLTKATRLVFRHADVAHLEELLKAHDTDGLKLIVTDGVFSMDGDIAPLDKIVPLAKKYKAVVYVDDAHGSGVLGEKGKGTVHHFGFHQDPDVVQVATLSKAWAGIGGYAAGARELKDLLINKARPFLFSTSHPPAVVGALLGALELIEKEPERVERLWENTRYFKRELARLGYDTLGSQTPITPVLFGEAPLAFEASRLLLEEGVFAVGIGFPTVPRGKARIRNIVTAAHTKEMLDKALEAYEKVGKRLGIIR”, which “soluble on expression in E. coli” value is on record?
**A.** soluble

**Q.** With “MSLNLTIGTSKFNPPFEVWSGNNSSLYGFDIDLMQEICRRLHATCTFEAYIFDDLFPALKNREVDLVIASMIITDERKKHFIFSLPYMESNSQYITTVDSKISTFDDLHGKKIGVRKGTPYARQVLSENRNNQVIFYELIQDMLLGLSNNQVDASLMDYEAAKYWMASEPYAYKLIGKKYKLIGKKISIGEGYSIMANPDQFVLIKKINKILLEMEADGTYLRLYSEYFEGHHHHHH” as the sequence, how does the “soluble on expression in E. coli” value read?
**A.** soluble

**Q.** Which “soluble on expression in E. coli” value does the source give for “DTEGKAHNEQAESIELEGDRIYKITLKDGLKFSDGTPIKAENFVKTWNYAVANDQLNASFFEGIKGFKEGVKELEGLKVVDDKTFTVELDQPESDFPSRLGYSAFFALPDIAFDDMAAFGENPVSSGPYKLAEWNHNESLTIVPNEEYQGDRKAKNDGVKFVFYASQDAAYSDLLAGNLDVLDQVPDSAFATYKDELGDRAVNQPAAVFQSFTIPEKLEHFSGEEGALRRAAISHAINREEITKTIFQDTRTPAKDFSSPVVDGYKEGLKGSEVVKFDSAKAKELWAQADKISKFTGEFTIAYNSDGGHQSWVDAVANQLKNNLGIAASGKPYPDFKSLRDEVTNHTITGAFRTGWQGDYPLLGNFLQPLYATNASSNDGQYSNPAFDAKLEEAAGAKSVEEGLKLYQEAEEILFKDLPAIPLWYANVNGGSSDKVSNVTFNWKSVAAYEQITKG” here?
**A.** not soluble

**Q.** For “SDERHKTDIAPISDKVLDAWEKVKFYQYKFKDAVDEKGEEARYHFGVIAQQIVKVFEDEGLSAFDYGLVGYDEWEATEDEYDSEGNLVEKGREAGNIYSIRPTECQWLEMACMRRKLERLSLEHHHHHH”, which “soluble on expression in E. coli” value is on record?
**A.** soluble

**Q.** For “EPPADGGQIKGVGSGRCLDVPDASTSDGTQLQLWDCHSGTNQQWAATDAGELRVYGDKCLDAAGTSNGSKVQIYSCWGGDNQKWRLNSDGSVVGVQSGLCLDAVGNGTANGTLIQLYTCSNGSNQRWTRT”, which “soluble on expression in E. coli” value is on record?
**A.** soluble

**Q.** Which “soluble on expression in E. coli” value does the source give for “MGSDKIHHHHHHVDDNALPVEETFKDIDLANNLKDCGKPLLLSDIVKDVEYVKLETQDNILVGDIKQLKRTEKFVFIYSRNQRHVMMFDTSGKFIRKIGHVGQGPGEIANIHCFTVSDSLVFIYPFSRNGSLTVYDMRDNSFVKEFSLKWPVFFSWTIDVMGDCLVYYPGTVYLPDNSKTFISACVANGKGETLMEQIPYLSSGDKEIVQLSSDPSWLYRGRSNVYSFINDTIYGITCDSIFPRYHLSLGKYKLPSGRYDPTHDYGWGDFVLMQSVYETKEFLFLELGTLL” here?
**A.** not soluble

**Q.** With “SNALSASEERFQLAVSGASAGLWDWNPKTGAMYLSPHFKKIMGYEDHELPDEITGHRESIHPDDRARVLAALKAHLEHRDTYDVEYRVRTRSGDFRWIQSRGQALWNSAGEPYRMVGWIMDVTDRKRDEDALRVSREELRRL” as the sequence, how does the “soluble on expression in E. coli” value read?
**A.** soluble

**Q.** Which “soluble on expression in E. coli” value does the source give for “MEGSHHHHHHSQAQSKAQVLQSVAGQTLTVRCQYPPTGSLYEKKGWCKEASALVCIRLVTSSKPRTMAWTSRFTIWDDPDAGFFTVTMTDLREEDSGHYWCRIYRPSDNSVSKSVRFYLVVS” here?
**A.** soluble

**Q.** Which “soluble on expression in E. coli” value does the source give for “MLKYNVRGENIEVTDALRSYVEKRLNKLEKYFELNQDVIAHVNLRVYRDHSAKVEVTIPLPYLVLRAEETTDDMYRSIDFVSEKLERQIRKYKTRVNRKSREKGLQDFFVEQPEEEKKPSEFDIVRNKRVSLKPMDPEEAILQMDMLEHDFFVFEDAETNGTSVVYRRNDGRYGLIETNELEHHHHHH” here?
**A.** soluble

**Q.** Which “soluble on expression in E. coli” value does the source give for “MVPPRGDAVRGPLGPGGESVVERYWEALKGVKDPEIPVLNIVEMGMVLGVEAEGKRVKVRFRPTFSGCPAIQLIREEIVGALKEAGAEEVEVEEARTPWSTEAMTEEAREKLLGYGVAPPLPLPMAGEDPPCPRCGSREVVLKNPFGATLCKTLYQCAACGEVFEAFKTV” here?
**A.** soluble

**Q.** For “MNRNRRDGPQRDVKRERRSRSRSPRRSRIGAAVGSNNGNSSSNNRMVFITNIAYEARWVDLKSLVREKGGEVAFCELLEDRNGKPKGNAVVEFETREGAEKCVENLQKFDWKGRTIIAKEIRDPNAFFRTIKTETGIDYLSRTGGGGAGGRGPPPKDLDRPTRTGTYDLFGLNMEFLRQHNIEPPLCERIFIANLAFNVGTDKLYEVFGMAGKITWMDFRIDKEGKSKGVCVIQYTHPIEAVQAVSMLNGQRLFDRNLVVKMDRFDKELEHKEGGLPRGLESIGMGLGAEGAPLSNVHGMFPGDASVPFTAPAAPFVGGPQVVSAGGFGGVVEQANFARSVMNNGPFGGNAGVGGAGGATFAQPDVFGVNGAGGLAGAATPQATRVIIIRNLPSDYTWQIVRDRVRNFGEVDSVDMMAPGAARIRFATFQDAERARAALYGSTVEGRMISVDYA”, which “soluble on expression in E. coli” value is on record?
**A.** soluble

**Q.** Which “soluble on expression in E. coli” value does the source give for “MTSMHTSVNGCKFCDIVKNKKELQLKENKSCVVINDIKPKAKNHYLVLSKQHIAKPTDLTVADVPLLEEMEKTGRELLREHLKKKGEADTVEDMLRIGFHLPPLLSVHHLHMHIIYPISDMGLISRKLTFRPGKVFKPARELIDQLKEDAGVPDPLEGNPAKDDVHEKIPAQVIS” here?
**A.** not soluble
